Laboratory results taken from patent US20140248303A1 (ST JUDE CHILDREN S RESEARCH HOSPITAL, published 2014).

B1: CbpA-N (domain N) (other)
chain: ENEGATQVPTSSNRANESQAEQGEQPKKLDSERDKARKEVEEYVKKIVGESYAKSTKKRHTITVALVNELNNIKNEYLNKIVESTSESQLQILMMESRSKVDEAVSKFEKDSSSSSSSDSSTKPEASDTAKPNKPT
notes: On latex microspheres
B2: CbpA-R12 (construct containing domain 1 and domain 2) (other)
chain: EPGEKVAEAKKKVEEAEKKAKDQKEEDRRNYPTITYKTLELEIAESDVEVKKAELELVKVKANEPRDEQKIKQAEAEVESKQAEATRLKKIKTDREEAEEEAKRRADAKEQGKPKGRAKRGVPGELATPDKKENDAKSSDSSVGEETLPSPSLKPEKKVAEAEKKVEEAKKKAEDQKEEDRRNYPTNTYKTLELEIAESDVEVKKAELELVKEEAKEPRNEEKVKQAKAEVESKKAEATRLEKIKTDRKKAEEEAKRKAAEEDKVKEK
notes: On latex microspheres
B3: CbpA-R2 (other)
chain: PEKKVAEAEKKVEEAKKKAEDQKEEDRRNYPTNTYKTLELEIAESDVEVKKAELELVKEEAKEPRNEEKVKQAKAEVESKKAEATRLEKIKTDRKKAEEEAKRKAAEEDKVKEKP

Biological target: T1, 37/67 laminin receptor (LR) (Homo sapiens (Human), UniProt P08865 2-295)
T1 construct: also called LRP
Assay: adhesion of construct-labeled latex microspheres to fixed TNF-activated RBCEC6 cells

Row | Binder | bead adherence to RBCEC6 cells, % (compared with full length CbpA-NR12 beads) [%] | binding result
1 | B1 | 23 | no binding
2 | B2 | 226 | –
3 | B3 | 6 | no binding
